Assay results: patent publication US20250084142A1 (INTARCIA THERAPEUTICS, published 2025)
Starred links: 1 amine or outer side, 2 acyl side, 3 side chain; linkers in the order of their positions; H or OH if unused. Positions of bridges follow the written chain, without caps; N, C: chain ends. Non-standard residues stand in square brackets, D forms with d. Groups on a side chain read outwards from the residue. No end group written: not given here. *: point of attachment. dpeg = —[CO(CH2)O(CH2)2O(CH2)NH]— spacer, O=C(COCCOCN[*:1])[*:2]; C20 diacid = O=C(O)CCCCCCCCCCCCCCCCCCC(=O)*; C19 diacid = O=C(O)CCCCCCCCCCCCCCCCCC(=O)*; C18 diacid = O=C(O)CCCCCCCCCCCCCCCCC(=O)*; γGlu = O=C(O)[C@H](CCC(=O)[*:2])N[*:1]; hSer = N[C@@H](CCO)C(=O)O; αMeS = C[C@](N)(CO)C(=O)O

T1: NPY5R
T1 sequence (Q15761 1-445, species assumed, looked up): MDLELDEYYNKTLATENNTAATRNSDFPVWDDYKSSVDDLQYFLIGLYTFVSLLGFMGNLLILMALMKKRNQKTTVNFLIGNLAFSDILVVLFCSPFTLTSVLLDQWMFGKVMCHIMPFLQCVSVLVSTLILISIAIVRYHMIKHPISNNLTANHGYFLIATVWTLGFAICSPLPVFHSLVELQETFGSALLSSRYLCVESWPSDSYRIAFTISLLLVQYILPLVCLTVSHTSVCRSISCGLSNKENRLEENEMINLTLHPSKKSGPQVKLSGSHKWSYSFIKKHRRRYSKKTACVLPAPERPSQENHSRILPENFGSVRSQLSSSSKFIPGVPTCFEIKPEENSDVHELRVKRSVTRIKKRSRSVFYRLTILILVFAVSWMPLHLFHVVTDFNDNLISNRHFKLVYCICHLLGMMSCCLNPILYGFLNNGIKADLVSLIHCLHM

T2: NPY2R
T2 sequence (P49146 1-381, species assumed, looked up): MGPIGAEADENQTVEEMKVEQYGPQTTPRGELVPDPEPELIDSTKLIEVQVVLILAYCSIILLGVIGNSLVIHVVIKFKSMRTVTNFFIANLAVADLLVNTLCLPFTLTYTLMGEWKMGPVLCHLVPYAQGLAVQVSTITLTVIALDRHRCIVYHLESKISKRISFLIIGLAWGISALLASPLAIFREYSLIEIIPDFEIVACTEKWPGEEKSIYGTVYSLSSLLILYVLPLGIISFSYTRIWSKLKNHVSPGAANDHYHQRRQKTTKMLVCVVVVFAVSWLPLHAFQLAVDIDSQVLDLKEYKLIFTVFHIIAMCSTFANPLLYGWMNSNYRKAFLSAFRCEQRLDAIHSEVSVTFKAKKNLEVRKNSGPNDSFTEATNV


Assays:
Test in all cases: cell-based or functional assay
NPY5R = target: T1, NPY5R
NPY2R = target: T2, NPY2R
NPY1R = target: NPY1R
Sequence of NPY1R (P25929 whole entry): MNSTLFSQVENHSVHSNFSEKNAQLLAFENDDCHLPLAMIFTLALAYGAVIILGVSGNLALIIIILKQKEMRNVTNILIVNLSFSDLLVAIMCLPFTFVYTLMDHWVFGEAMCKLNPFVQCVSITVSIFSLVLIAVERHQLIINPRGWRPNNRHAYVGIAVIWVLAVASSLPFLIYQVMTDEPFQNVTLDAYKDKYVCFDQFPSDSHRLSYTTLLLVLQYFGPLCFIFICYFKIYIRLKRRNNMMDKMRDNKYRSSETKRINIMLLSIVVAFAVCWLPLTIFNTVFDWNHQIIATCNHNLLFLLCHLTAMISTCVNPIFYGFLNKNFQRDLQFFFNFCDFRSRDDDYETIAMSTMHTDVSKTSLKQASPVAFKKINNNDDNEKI

Binder | NPY5R pEC50 (NPY5R) | NPY2R pEC50 (NPY2R) | NPY1R pEC50 (NPY1R)
PKPEAPGK([γGlu-γGlu-C18 diacid])DASPEEWDRYYKDLRHYLNWLTRQRF-NH2 [Compound A32] | 9 -Log(EC50, M) | 10.8 -Log(EC50, M) | –
PKPEAPGK([γGlu-γGlu-C19 diacid])DASPEEWDRYYKDLRHYLNWLTRQRF-NH2 [Compound A33] | 8.9 -Log(EC50, M) | 10.4 -Log(EC50, M) | –
PKPEAPGKDASPEEWNRYY[dK]([γGlu-γGlu-C20 diacid])DLRHYLNWLTRQRF-NH2 (N-terminus assumed; SMILES CC(C)C[C@H](NC(=O)[C@H](Cc1ccc(O)cc1)NC(=O)[C@H](Cc1c[nH]cn1)NC(=O)[C@H](CCCNC(=N)N)NC(=O)[C@H](CC(C)C)NC(=O)[C@H](CC(=O)O)NC(=O)[C@@H](CCCCNC(=O)CC[C@H](NC(=O)CC[C@H](NC(=O)CCCCCCCCCCCCCCCCCCC(=O)O)C(=O)O)C(=O)O)NC(=O)[C@H](Cc1ccc(O)cc1)NC(=O)[C@H](Cc1ccc(O)cc1)NC(=O)[C@H](CCCNC(=N)N)NC(=O)[C@H](CC(N)=O)NC(=O)[C@H](Cc1c[nH]c2ccccc12)NC(=O)[C@H](CCC(=O)O)NC(=O)[C@H](CCC(=O)O)NC(=O)[C@@H]1CCCN1C(=O)[C@H](CO)NC(=O)[C@H](C)NC(=O)[C@H](CC(=O)O)NC(=O)[C@H](CCCCN)NC(=O)CNC(=O)[C@@H]1CCCN1C(=O)[C@H](C)NC(=O)[C@H](CCC(=O)O)NC(=O)[C@@H]1CCCN1C(=O)[C@H](CCCCN)NC(=O)[C@@H]1CCCN1)C(=O)N[C@@H](CC(N)=O)C(=O)N[C@@H](Cc1c[nH]c2ccccc12)C(=O)N[C@@H](CC(C)C)C(=O)N[C@H](C(=O)N[C@@H](CCCNC(=N)N)C(=O)N[C@@H](CCC(N)=O)C(=O)N[C@@H](CCCNC(=N)N)C(=O)N[C@@H](Cc1ccccc1)C(N)=O)[C@@H](C)O) [Compound A14] | 8.3 -Log(EC50, M) | – | 8.5 -Log(EC50, M)
PKPEAPGK([γGlu-γGlu-C20 diacid])DASPEEW[hSer]RYYKDLRHYLNWLTRQRF-NH2 [Compound A30] | 8.5 -Log(EC50, M) | 10.3 -Log(EC50, M) | –
PKPEAPGK([γGlu-γGlu-C20 diacid])DASPEEW[αMeS]RYYKDLRHYLNWLTRQRF-NH2 [Compound A31] | 8.7 -Log(EC50, M) | 10.4 -Log(EC50, M) | –

Other lines, results leading:

NPY5R pEC50 (NPY5R) | NPY2R pEC50 (NPY2R) | NPY1R pEC50 (NPY1R) | Binder
8.6 -Log(EC50, M) | 10.2 -Log(EC50, M) | 8 -Log(EC50, M) | PKPEAPGKDASPEEWNRYY[dK]([γGlu-dpeg-dpeg-γGlu-C20 diacid])DLRHYLNWLTRQRF-NH2 [Compound A65]
9.1 -Log(EC50, M) | 10.5 -Log(EC50, M) | – | PKPEK([γGlu-γGlu-C18 diacid])PGEDASPKEWDRYYKDLRHYLNWLTRQRF-NH2 (N-terminus assumed; SMILES CC(C)C[C@H](NC(=O)[C@H](CC(=O)O)NC(=O)[C@H](CCCCN)NC(=O)[C@H](Cc1ccc(O)cc1)NC(=O)[C@H](Cc1ccc(O)cc1)NC(=O)[C@H](CCCNC(=N)N)NC(=O)[C@H](CC(=O)O)NC(=O)[C@H](Cc1c[nH]c2ccccc12)NC(=O)[C@H](CCC(=O)O)NC(=O)[C@H](CCCCN)NC(=O)[C@@H]1CCCN1C(=O)[C@H](CO)NC(=O)[C@H](C)NC(=O)[C@H](CC(=O)O)NC(=O)[C@H](CCC(=O)O)NC(=O)CNC(=O)[C@@H]1CCCN1C(=O)[C@H](CCCCNC(=O)CC[C@H](NC(=O)CC[C@H](NC(=O)CCCCCCCCCCCCCCCCC(=O)O)C(=O)O)C(=O)O)NC(=O)[C@H](CCC(=O)O)NC(=O)[C@@H]1CCCN1C(=O)[C@H](CCCCN)NC(=O)[C@@H]1CCCN1)C(=O)N[C@@H](CCCNC(=N)N)C(=O)N[C@@H](Cc1c[nH]cn1)C(=O)N[C@@H](Cc1ccc(O)cc1)C(=O)N[C@@H](CC(C)C)C(=O)N[C@@H](CC(N)=O)C(=O)N[C@@H](Cc1c[nH]c2ccccc12)C(=O)N[C@@H](CC(C)C)C(=O)N[C@H](C(=O)N[C@@H](CCCNC(=N)N)C(=O)N[C@@H](CCC(N)=O)C(=O)N[C@@H](CCCNC(=N)N)C(=O)N[C@@H](Cc1ccccc1)C(N)=O)[C@@H](C)O) [Compound A35]
8.8 -Log(EC50, M) | 10.2 -Log(EC50, M) | – | PKPEKPGEDASPKEWDRYYK([γGlu-γGlu-C20 diacid])DLRHYLNWLTRQRF-NH2 (N-terminus assumed; SMILES CC(C)C[C@H](NC(=O)[C@H](CC(=O)O)NC(=O)[C@H](CCCCNC(=O)CC[C@H](NC(=O)CC[C@H](NC(=O)CCCCCCCCCCCCCCCCCCC(=O)O)C(=O)O)C(=O)O)NC(=O)[C@H](Cc1ccc(O)cc1)NC(=O)[C@H](Cc1ccc(O)cc1)NC(=O)[C@H](CCCNC(=N)N)NC(=O)[C@H](CC(=O)O)NC(=O)[C@H](Cc1c[nH]c2ccccc12)NC(=O)[C@H](CCC(=O)O)NC(=O)[C@H](CCCCN)NC(=O)[C@@H]1CCCN1C(=O)[C@H](CO)NC(=O)[C@H](C)NC(=O)[C@H](CC(=O)O)NC(=O)[C@H](CCC(=O)O)NC(=O)CNC(=O)[C@@H]1CCCN1C(=O)[C@H](CCCCN)NC(=O)[C@H](CCC(=O)O)NC(=O)[C@@H]1CCCN1C(=O)[C@H](CCCCN)NC(=O)[C@@H]1CCCN1)C(=O)N[C@@H](CCCNC(=N)N)C(=O)N[C@@H](Cc1c[nH]cn1)C(=O)N[C@@H](Cc1ccc(O)cc1)C(=O)N[C@@H](CC(C)C)C(=O)N[C@@H](CC(N)=O)C(=O)N[C@@H](Cc1c[nH]c2ccccc12)C(=O)N[C@@H](CC(C)C)C(=O)N[C@H](C(=O)N[C@@H](CCCNC(=N)N)C(=O)N[C@@H](CCC(N)=O)C(=O)N[C@@H](CCCNC(=N)N)C(=O)N[C@@H](Cc1ccccc1)C(N)=O)[C@@H](C)O) [Compound A34]
8.9 -Log(EC50, M) | 10.4 -Log(EC50, M) | 9.1 -Log(EC50, M) | PKPEKPGK([γGlu-γGlu-C19 diacid])DASPKEWERYYKDLRHYLNWLTRQRF-NH2 (lactam 16-20; N-terminus assumed; SMILES CC(C)C[C@H](NC(=O)[C@H](CC(=O)O)NC(=O)[C@@H]1CCCCNC(=O)CC[C@H](NC(=O)[C@H](Cc2c[nH]c3ccccc23)NC(=O)[C@H](CCC(=O)O)NC(=O)[C@H](CCCCN)NC(=O)[C@@H]2CCCN2C(=O)[C@H](CO)NC(=O)[C@H](C)NC(=O)[C@H](CC(=O)O)NC(=O)[C@H](CCCCNC(=O)CC[C@H](NC(=O)CC[C@H](NC(=O)CCCCCCCCCCCCCCCCCC(=O)O)C(=O)O)C(=O)O)NC(=O)CNC(=O)[C@@H]2CCCN2C(=O)[C@H](CCCCN)NC(=O)[C@H](CCC(=O)O)NC(=O)[C@@H]2CCCN2C(=O)[C@H](CCCCN)NC(=O)[C@@H]2CCCN2)C(=O)N[C@@H](CCCNC(=N)N)C(=O)N[C@@H](Cc2ccc(O)cc2)C(=O)N[C@@H](Cc2ccc(O)cc2)C(=O)N1)C(=O)N[C@@H](CCCNC(=N)N)C(=O)N[C@@H](Cc1c[nH]cn1)C(=O)N[C@@H](Cc1ccc(O)cc1)C(=O)N[C@@H](CC(C)C)C(=O)N[C@@H](CC(N)=O)C(=O)N[C@@H](Cc1c[nH]c2ccccc12)C(=O)N[C@@H](CC(C)C)C(=O)N[C@H](C(=O)N[C@@H](CCCNC(=N)N)C(=O)N[C@@H](CCC(N)=O)C(=O)N[C@@H](CCCNC(=N)N)C(=O)N[C@@H](Cc1ccccc1)C(N)=O)[C@@H](C)O) [Compound A39]
8.7 -Log(EC50, M) | 10.9 -Log(EC50, M) | – | PKPEK([γGlu-γGlu-C19 diacid])PGEDASPKEWNRYYKDLRHYLNWLTRQRF-NH2 (N-terminus assumed; SMILES CC(C)C[C@H](NC(=O)[C@H](CC(=O)O)NC(=O)[C@H](CCCCN)NC(=O)[C@H](Cc1ccc(O)cc1)NC(=O)[C@H](Cc1ccc(O)cc1)NC(=O)[C@H](CCCNC(=N)N)NC(=O)[C@H](CC(N)=O)NC(=O)[C@H](Cc1c[nH]c2ccccc12)NC(=O)[C@H](CCC(=O)O)NC(=O)[C@H](CCCCN)NC(=O)[C@@H]1CCCN1C(=O)[C@H](CO)NC(=O)[C@H](C)NC(=O)[C@H](CC(=O)O)NC(=O)[C@H](CCC(=O)O)NC(=O)CNC(=O)[C@@H]1CCCN1C(=O)[C@H](CCCCNC(=O)CC[C@H](NC(=O)CC[C@H](NC(=O)CCCCCCCCCCCCCCCCCC(=O)O)C(=O)O)C(=O)O)NC(=O)[C@H](CCC(=O)O)NC(=O)[C@@H]1CCCN1C(=O)[C@H](CCCCN)NC(=O)[C@@H]1CCCN1)C(=O)N[C@@H](CCCNC(=N)N)C(=O)N[C@@H](Cc1c[nH]cn1)C(=O)N[C@@H](Cc1ccc(O)cc1)C(=O)N[C@@H](CC(C)C)C(=O)N[C@@H](CC(N)=O)C(=O)N[C@@H](Cc1c[nH]c2ccccc12)C(=O)N[C@@H](CC(C)C)C(=O)N[C@H](C(=O)N[C@@H](CCCNC(=N)N)C(=O)N[C@@H](CCC(N)=O)C(=O)N[C@@H](CCCNC(=N)N)C(=O)N[C@@H](Cc1ccccc1)C(N)=O)[C@@H](C)O) [Compound A36]
